Three molecules from article PMC6101539 (Nucleic Acids Research, 2018) can be followed below.

The Kd is the constant that tells how readily two partners part at equilibrium. A high value points to weaker binding.

One data set concerns the target T1, RarA (Bacillus subtilis, UniProt O34528 1-421).
T1 sequence: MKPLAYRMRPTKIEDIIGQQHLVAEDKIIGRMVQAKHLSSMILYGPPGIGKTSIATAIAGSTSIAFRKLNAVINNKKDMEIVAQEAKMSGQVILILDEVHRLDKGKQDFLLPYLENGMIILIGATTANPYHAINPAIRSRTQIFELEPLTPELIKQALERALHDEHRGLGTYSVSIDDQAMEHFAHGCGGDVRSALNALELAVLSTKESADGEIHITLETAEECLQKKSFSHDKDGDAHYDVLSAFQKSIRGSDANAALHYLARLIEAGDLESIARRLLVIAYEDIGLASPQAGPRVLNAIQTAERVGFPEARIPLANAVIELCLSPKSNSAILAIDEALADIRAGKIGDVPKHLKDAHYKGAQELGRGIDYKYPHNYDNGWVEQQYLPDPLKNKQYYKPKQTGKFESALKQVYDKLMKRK
In words: EMSA. In general terms: In EMSA bound probe runs differently from free probe, usually more slowly.

Data set [1] deals with T2, Bacillus subtilis RarA K51A (Walker A motif mutant) (B. subtilis, UniProt O34528 1-421, K51A).
T2 sequence (looked up): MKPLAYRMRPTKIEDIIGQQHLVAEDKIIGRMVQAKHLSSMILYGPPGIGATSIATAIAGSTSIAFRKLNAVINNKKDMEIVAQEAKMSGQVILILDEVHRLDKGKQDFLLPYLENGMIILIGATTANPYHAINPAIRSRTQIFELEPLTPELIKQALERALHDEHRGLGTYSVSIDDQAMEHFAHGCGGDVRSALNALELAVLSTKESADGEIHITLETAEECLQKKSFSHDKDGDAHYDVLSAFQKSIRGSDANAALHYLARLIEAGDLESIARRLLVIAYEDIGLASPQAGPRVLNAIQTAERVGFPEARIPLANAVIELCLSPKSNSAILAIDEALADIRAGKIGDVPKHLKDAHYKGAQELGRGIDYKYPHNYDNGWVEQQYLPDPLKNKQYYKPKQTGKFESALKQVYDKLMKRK
The data set can be described thus: native gel or EMSA.

Data set [2] concerns the target T3, Bacillus subtilis RarA (replication associated recombination protein A) (B. subtilis, UniProt O34528 1-421).
T3 sequence (looked up): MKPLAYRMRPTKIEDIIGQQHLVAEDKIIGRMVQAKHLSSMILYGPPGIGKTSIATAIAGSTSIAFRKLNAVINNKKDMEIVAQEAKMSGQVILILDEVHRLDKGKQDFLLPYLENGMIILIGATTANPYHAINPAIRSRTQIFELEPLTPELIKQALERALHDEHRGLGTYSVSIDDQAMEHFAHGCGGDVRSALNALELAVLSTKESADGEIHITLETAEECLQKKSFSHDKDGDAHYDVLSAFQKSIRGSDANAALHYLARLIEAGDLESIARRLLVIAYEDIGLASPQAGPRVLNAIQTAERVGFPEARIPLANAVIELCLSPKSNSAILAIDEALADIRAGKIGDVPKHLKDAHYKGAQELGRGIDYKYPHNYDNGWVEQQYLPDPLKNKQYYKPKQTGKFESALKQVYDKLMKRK
In words: native gel or EMSA.

B1: dsDNA (100U/100D) (dsDNA)
DNA 1: GGGCGAATTGGGCCCGACGTCGCATGCTCCTCTAGACTCGAGGAATTCGGTACCCCGGGTTCGAAATCGATAAGCTTACAGTCTCCATTTAAAGGACAAG
DNA 2: CTTGTCCTTTAAATGGAGACTGTAAGCTTATCGATTTCGAACCCGGGGTACCGAATTCCTCGAGTCTAGAGGAGCATGCGACGTCGGGCCCAATTCGCCC
In the data set with RarA, B1 showed a Kd of around 37 nM.

B2: Bacillus subtilis SsbA (single stranded binding protein A) (natural protein, B. subtilis, UniProt P37455 1-172, looked up)
chain: MLNRVVLVGRLTKDPELRYTPNGAAVATFTLAVNRTFTNQSGEREADFINCVTWRRQAENVANFLKKGSLAGVDGRLQTRNYENQQGQRVFVTEVQAESVQFLEPKNGGGSGSGGYNEGNSGGGQYFGGGQNDNPFGGNQNNQRRNQGNSFNDDPFANDGKPIDISDDDLPF
Consider B2, for which the binding result in data set [1] and in data set [2] was “binds” in each case.

B3: SsbBA chimera (SsbB with the last 9 terminal acidic residues of SsbA) (other, B. subtilis, UniProt C0SPB6 1-113, looked up)
chain: MFNQVMLVGRLTKDPDLRYTSAGAAVAHVTLAVNRSFKNASGEIEADYVNCTLWRKTAENTALYCQKGSLVGVSGRIQTRSYENEEGVNVYVTEVLADTVRFMDPKPREKAADDISDDDLPF
In the case of B3, in data set [2], the binding result is “binds”.
